Target: RuvAMge;RecUMge (Mycoplasma genitalium G37 (ATCC …, UniProt Q49424;Q49422 1-205;1-166, |))
Experiment: EMSA; 0.5 uM RecUMge preincubated, then RuvAMge; all RecU-HJ complexes shifted at 4 uM; 20 mM Tris-HCl pH 7.5, 1 mM DTT, 1 mM EDTA, 12.3 nM DNA, 10 ul, on ice 10 min; 8% PAGE in 0.5x TBE; +/- 10 mM Mg2+

B1: HJ 1.1 (structured_DNA)
DNA 1: GCGACGTGATCACCAGATGATTGCTAGGCATGCTTTCCGCAAGAGAAGC
DNA 2: GGCTTCTCTTGCGGAAAGCATGCCTAGCAATCCTGTCAGCTGCATGGAAC
DNA 3: GGTTCCATGCAGCTGACAGGATTGCTAGGCTCAAGGCGAACTGCTAACGG
DNA 4: ACCGTTAGCAGTTCGCCTTGAGCCTAGCAATCATCTGGTGATCACGTCGC
binding result: binds

Reference: article PMC3364216, “The RuvA Homologues from Mycoplasma genitalium and Mycoplasma pneumoniae Exhibit Unique Functional Characteristics”
